The record followed here is the supplement of paper PMC10201428.

Sequences and labels used below:
B1: library; a variant is named by its letters at N, in order (parent)
chain: AATGTTGTTGATGCAACCATAAAGTGATATTTAATAATTATTTATAATCAGCAACTTAACCACAAAACAACCATATATTGATATNTCACAAAACAACCATAANTTGATATTTTTGTGAATCGAGTATTTCAGCAAAACTACTGCAGTAAGAA

± gives the standard deviation of the averaged measurements.

In data set [1] the parent is B1. As to the kind of experiment: relative integration efficiency (T-LR orientation) vs wild-type transposon end (log2 (normalized fold change)); transposon end mutated: left end; higher = more efficient transposition. The following applies: with VchCAST RNA-guided transposition machinery (E. coli BL21(DE3) host, lacZ target). The procedure: (§1)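 Pooled, barcoded VchCAST (Tn6677) mini-transposon donor libraries; each variable transposon-end sequence sits in a fixed pDonor mini-transposon context (10-bp barcode and cargo not included). Left- or right-end libraries were co-transformed with pEffector (TniQ-Cascade, TnsABC, lacZ crRNA, T7, 0.1 mM IPTG) into E. coli BL21(DE3) and grown 18 h at 37 C. T-LR and T-RL junction amplicons were sequenced; output/input barcode fold change was normalised to the mean of four wild-type barcodes and log2-transformed. Two biological replicates; zero-count/undetected variants carry floor values (-10 / -15), censored here. Barcode uncoupling by PCR recombination adds noise.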

Variants of B1 are the subject of data set [2]. Kind of data set: relative integration efficiency (T-RL orientation) vs wild-type transposon end (log2 (normalized fold change)); transposon end mutated: left end; higher = more efficient transposition. The following applies: with VchCAST RNA-guided transposition machinery (E. coli BL21(DE3) host, lacZ target). Here is the method:
as §1

For AATGTTGTTGATGCAACCATCCAGTGATATTTAATAATTATTTATAATCAGCAACTTAACCACAAAACAACCATATATTGATATCTCACAAAACAACCATAAGTTGATATTTTTGTGAATCGAGTATTTCAGCAAAACTACTGCAGTAAGAA [CG A21C A22C], the “relative integration efficiency (log2)” value in data set [1] was -1.77 ± 0.64; in data set [2] it was -1.82 ± 0.43.
For the variant AATGTTGTTGATGCAACCTTAAAGTGATATTTAATAATTATTTATAATCAGCAACTTAACCACAAAACAACCTTATATTGATATCTCACAAAACAACCTTAAGTTGATATTTTTGTGAATCGAGTATTTCAGCAAAACTACTGCAGTAAGAA [CG A19T A73T A99T], the “relative integration efficiency (log2)” value in data set [1] was -2.5 ± 0.48; in data set [2] it was -2.22 ± 0.88.
Consider AATGTTGTTGATGCAACCATTTAGTGATATTTAATAATTATTTATAATCAGCAACTTAACCACAAAACAACCATATATTGATATCTCACAAAACAACCATAAGTTGATATTTTTGTGAATCGAGTATTTCAGCAAAACTACTGCAGTAAGAA [CG A21T A22T], for which the “relative integration efficiency (log2)” value in data set [1] was -0.163 ± 0.75; in data set [2], -0.172 ± 0.32.
For AATGTTGTTGATGCATCCATAAAGTGATATTTAATAATTATTTATAATCAGCAACTTAACCACAAAACAACCATATATTGATATCTCACAAAACAACCATAAGTTGATATTTTTGTGAATCGAGTATTTCAGCAAAACTACTGCAGTAAGAA [CG A16T], the results for the “relative integration efficiency (log2)” value in data set [1] and in data set [2] were -0.444 ± 0.68 and 0.0359 ± 0.064, respectively.
On the same counts, the results for AATGTTGTTGATGCATGGTTAAAGTGATATTTAATAATTATTTATAATCAGCAACTTAACCACAAAACAACCATATATTGATATCTCACAAAACAACCATAAGTTGATATTTTTGTGAATCGAGTATTTCAGCAAAACTACTGCAGTAAGAA [CG A16T C17G C18G A19T] are -1.18 ± 1.3 and -1.61 ± 0.74.
As for AATGTTGTTGATGCAACCATCCCTTGATATTTAATAATTATTTATAATCAGCAACTTAACCACAAAACAACCATATATTGATATCTCACAAAACAACCATAAGTTGATATTTTTGTGAATCGAGTATTTCAGCAAAACTACTGCAGTAAGAA [CG A21C A22C A23C G24T], the results for the “relative integration efficiency (log2)” value in data set [1] and in data set [2] were -0.914 ± 0.79 and -1.03 ± 0.74, respectively.
On the same counts, the results for AATGTTGTTGATGCAACCCGAAAGTGATATTTAATAATTATTTATAATCAGCAACTTAACCACAAAACAACCATATATTGATATCTCACAAAACAACCATAAGTTGATATTTTTGTGAATCGAGTATTTCAGCAAAACTACTGCAGTAAGAA [CG A19C T20G] are -2.1 ± 1.2 and -2.69 ± 0.82.
For AATGTTGTTGATGCATGCATAAAGTGATATTTAATAATTATTTATAATCAGCAACTTAACCACAAAACAACCATATATTGATATCTCACAAAACAACCATAAGTTGATATTTTTGTGAATCGAGTATTTCAGCAAAACTACTGCAGTAAGAA [CG A16T C17G] the same measures were -0.34 ± 0.47 and -0.0955 ± 0.095.
For AATGTTGTTGATGCAACCATTAAGTGATATTTAATAATTATTTATAATCAGCAACTTAACCACAAAACAACCATATATTGATATCTCACAAAACAACCATAAGTTGATATTTTTGTGAATCGAGTATTTCAGCAAAACTACTGCAGTAAGAA [CG A21T] the same measures were -0.384 ± 0.81 and -0.164 ± 0.16.
AATGTTGTTGATGCAACCATCAAGTGATATTTAATAATTATTTATAATCAGCAACTTAACCACAAAACAACCATATATTGATATCTCACAAAACAACCATAAGTTGATATTTTTGTGAATCGAGTATTTCAGCAAAACTACTGCAGTAAGAA [CG A21C]: the “relative integration efficiency (log2)” value in data set [1] is -1.47 ± 0.6; in data set [2], -0.867 ± 0.55.
For AATGTTGTTGATGCAACCATGAAGTGATATTTAATAATTATTTATAATCAGCAACTTAACCACAAAACAACCATATATTGATATCTCACAAAACAACCATAAGTTGATATTTTTGTGAATCGAGTATTTCAGCAAAACTACTGCAGTAAGAA [CG A21G] the same measures were -0.166 ± 0.32 and -0.412 ± 0.49.
For AATGTTGTTGATGCAACCTATTAGTGATATTTAATAATTATTTATAATCAGCAACTTAACCACAAAACAACCATATATTGATATCTCACAAAACAACCATAAGTTGATATTTTTGTGAATCGAGTATTTCAGCAAAACTACTGCAGTAAGAA [CG A19T T20A A21T A22T] the same measures were -1.03 ± 0.48 and -1.21 ± 0.46.
On the same counts, the results for AATGTTGTTGATGCAACCTAAAAGTGATATTTAATAATTATTTATAATCAGCAACTTAACCACAAAACAACCATATATTGATATCTCACAAAACAACCATAAGTTGATATTTTTGTGAATCGAGTATTTCAGCAAAACTACTGCAGTAAGAA [CG A19T T20A] are -0.844 ± 0.51 and -1.12 ± 0.56.
Regarding AATGTTGTTGATGCAACCATCAAGTGATATTTAATAATTATTTATAATCAGCAACTTAACCACAAAACAACCATCTATTGATATCTCACAAAACAACCATCAGTTGATATTTTTGTGAATCGAGTATTTCAGCAAAACTACTGCAGTAAGAA [CG A21C A75C A101C], the “relative integration efficiency (log2)” value is -3.75 ± 1.3 in data set [1] and -3.08 ± 0.72 in data set [2].
AATGTTGTTGATGCATCCATAAAGTGATATTTAATAATTATTTATAATCAGCAACTTAACCACAAAACATCCATATATTGATATCTCACAAAACATCCATAAGTTGATATTTTTGTGAATCGAGTATTTCAGCAAAACTACTGCAGTAAGAA [CG A16T A70T A96T]: the figures for the “relative integration efficiency (log2)” value in data set [1] and in data set [2] were -1.37 ± 0.86 and -0.887 ± 0.43, respectively.
On the same counts, the results for AATGTTGTTGATGCAACCATTTTCTGATATTTAATAATTATTTATAATCAGCAACTTAACCACAAAACAACCATATATTGATATCTCACAAAACAACCATAAGTTGATATTTTTGTGAATCGAGTATTTCAGCAAAACTACTGCAGTAAGAA [CG A21T A22T A23T G24C] are -0.979 ± 0.79 and -0.775 ± 0.46.
For AATGTTGTTGATGCAACCCTAAAGTGATATTTAATAATTATTTATAATCAGCAACTTAACCACAAAACAACCATATATTGATATCTCACAAAACAACCATAAGTTGATATTTTTGTGAATCGAGTATTTCAGCAAAACTACTGCAGTAAGAA [CG A19C] the same measures were -1.53 ± 1 and -1.49 ± 0.49.
Consider AATGTTGTTGATGCAACCGTAAAGTGATATTTAATAATTATTTATAATCAGCAACTTAACCACAAAACAACCATATATTGATATCTCACAAAACAACCATAAGTTGATATTTTTGTGAATCGAGTATTTCAGCAAAACTACTGCAGTAAGAA [CG A19G], for which the entries for the “relative integration efficiency (log2)” value in data set [1] and in data set [2] were -0.219 ± 0.077 and -0.352 ± 0.074, respectively.
On the same counts, the results for AATGTTGTTGATGCAACCTTAAAGTGATATTTAATAATTATTTATAATCAGCAACTTAACCACAAAACAACCATATATTGATATCTCACAAAACAACCATAAGTTGATATTTTTGTGAATCGAGTATTTCAGCAAAACTACTGCAGTAAGAA [CG A19T] are -0.706 ± 1.6 and -0.267 ± 0.38.
